Patent US11819531B2, “Multifunctional zwitterionic polymer conjugates” (Kodiak Sciences Inc., priority 2009, dated 2023)

System: Liver esterase from rabbit liver
Experiment: Camptothecin release study from camptothecin grafted copolymer (esterase incubation, GPC at 370 nm)
Format: in vitro ADME
Settings: copolymer approximately 10 mg/ml in Tris Buffer, pH=8.0, rabbit liver esterase, 37° C.
Protocol: Samples of camptothecin grafted copolymer were prepared at approximately 10 mg/ml in Tris Buffer, pH=8.0. Liver esterase from rabbit liver (Sigma-Aldrich E0887-IKU, Lot #061K74451) was added to the sample and the sample was incubated at 37° C. for up to 65 hours.
GPC analysis of the samples was made using an HPLC system consisting of a Waters Alliance 2995 with Waters 2410 Refractive Index Detector, Waters 2996 Photodiode Array Detector, and a Shodex Protein KW-803 column. The mobile phase used for the elution was phosphate buffered saline containing 10% absolute ethanol. The flow rate was set to 1 ml/min and the presence of camptothecin monitored at 370 nm. Ten microliter injections of the samples were made at each time point.

With “Camptothecin PC-Copolymer [camptothecin grafted copolymer]” the “Camptothecin Released” value (Time 0 h) was 0.059 mg/mL, the “Camptothecin Released” value (Time 1 h) was 0.079 mg/mL and the “Camptothecin Released” value (Time 2 h) was 0.132 mg/mL. For the same substance, the “Camptothecin Released” value (Time 3 h) was 0.130 mg/mL, the “Camptothecin Released” value (Time 4 h) was 0.128 mg/mL and the “Camptothecin Released” value (Time 17 h) was 0.208 mg/mL. For the same substance, the “Camptothecin Released” value (Time 26 h) was 0.251 mg/mL, the “Camptothecin Released” value (Time 41 h) was 0.335 mg/mL and the “Camptothecin Released” value (Time 65 h) was 0.427 mg/mL.
